In this test the target is Recombinant TssK (SMA2253), purified from S. marcescens, His6 tag removed (Serratia marcescens Db10). Nature of the test: AUC; sedimentation velocity, 4°C, 49000 rev./min, 50 mM Tris/HCl pH 7.5, 250 mM NaCl; Peak 1 at 0.2 to 0.7 mg/ml, Peak 2 at 0.2 and 0.5 mg/ml; c(s) analysis in SEDFIT.

“And” between values parts separate entries of the source, which are not always exact repeats. Equal values may be shown once.

“Recombinant TssK (SMA2253), purified from S. marcescens, His6 tag removed (natural protein)”: the stoichiometry N (usually the number of molecules, sites or subunits per partner or assembly) is 3 and 6.
